Test results from PMC12400190, “Crystal structures of 40- and 71-substitution variants of hydroxynitrile lyase from rubber tree” (Acta Crystallographica Section D: Structural Biology, 2025).

Tests used:
Conditions in all cases: 5 mM BES pH 7.2, 7-8% (v/v) acetonitrile
[1] = test system: CC(=O)Oc1ccc([N+](=O)[O-])cc1; test: purified protein
[2] = biological target: T1, HbHNL (Hevea brasiliensis, UniProt P52704); test: spectrophotometric ester hydrolysis at […] nm, Michaelis-Menten fit; format: biochemical
T1 construct: gene HNL; full length 257 aa; variant structures 8sni (HNL40), 9clr (HNL71); dimer
T1 sequence (P52704 whole entry): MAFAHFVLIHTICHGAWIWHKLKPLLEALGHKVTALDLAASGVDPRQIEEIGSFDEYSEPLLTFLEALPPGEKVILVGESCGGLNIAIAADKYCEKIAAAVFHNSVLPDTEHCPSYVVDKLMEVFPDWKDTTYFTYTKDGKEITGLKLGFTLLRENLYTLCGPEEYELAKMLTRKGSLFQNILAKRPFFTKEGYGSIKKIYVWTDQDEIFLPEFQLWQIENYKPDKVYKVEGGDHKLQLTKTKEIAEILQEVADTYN

[3] = biological target: T2, SABP2 (Nicotiana tabacum, UniProt Q6RYA0); test: as above; format: biochemical
T2 construct: production of the assayed sample not described in the main text
T2 sequence (Q6RYA0 1-260): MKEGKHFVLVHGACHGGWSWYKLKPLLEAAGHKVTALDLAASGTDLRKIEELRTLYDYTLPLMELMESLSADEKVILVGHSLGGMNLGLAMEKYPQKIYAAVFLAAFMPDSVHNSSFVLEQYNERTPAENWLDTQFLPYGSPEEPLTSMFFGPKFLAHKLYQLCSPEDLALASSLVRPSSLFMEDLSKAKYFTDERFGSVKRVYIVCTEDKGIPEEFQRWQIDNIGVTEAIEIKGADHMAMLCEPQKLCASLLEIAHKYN

Molecule	Km [1] [µM]	kcat [1] [s⁻¹]	kcat/Km [1] [M⁻¹ s⁻¹]	Km [2] [µM]	Km [3] [µM]
HbHNL (Hevea brasiliensis; C81L/E79H/F210I/H103V/I12A/I209G/K236M/L121Y/L146M/L148F/L152F/N104A/T11G/T151K/V106F/V118L)	600 ± 200	0.00583 ± 0.000167	10.7	–	–
CC(=O)Oc1ccc([N+](=O)[O-])cc1 [p-nitrophenyl acetate]	–	–	–	3000 ± 400	2200 ± 200
